Reference: the RNAGym collection of RNA variant scans (doi:10.7554/elife.80360)

B1: Hairpin Ribozyme (parent)
chain: GUCCUCUUUCACGUGCGCGUGAAAGAGAGAAGUGAACCAGAGAAACACACGUUGUGGUAUAUUACCUGGUA

Variants of: B1
Assay: self-cleavage, relative activity (ratio to wild type); higher = more cleavage; co-transcriptional
Work on A43G C46G yielded a self-cleavage of 0.26. For A43U C65A, the self-cleavage was 0.0905. Variant A43U U52A has a self-cleavage of 0.229. Work on C46G U70C yielded a self-cleavage of 0.203. C46G U55G showed a self-cleavage of 0.107. For A44C C48A, the self-cleavage was 0.161. A44C C48G showed a self-cleavage of 0.151. For A45C A59G, the self-cleavage was 0.208. C46U G68A gave a self-cleavage of 0.0828. Variant C46U G68U has a self-cleavage of 0.119. A43G U67C gave a self-cleavage of 0.153. With A43G U67G the self-cleavage was 0.207. A44U A61G showed a self-cleavage of 0.124. With A45U G69U the self-cleavage was 0.197. Variant A44C U60G has a self-cleavage of 0.0874. A47G U62A showed a self-cleavage of 0.0725. A45G A61C showed a self-cleavage of 0.142. Work on A47G C65G yielded a self-cleavage of 0.112. For A43G U60C, the self-cleavage was 0.0979. A44U G54A gave a self-cleavage of 0.181. A45G U62C showed a self-cleavage of 0.0923. C46G A61U gave a self-cleavage of 0.157. Work on C46G A61G yielded a self-cleavage of 0.126. A44C G69C gave a self-cleavage of 0.141. Variant A44C G69U has a self-cleavage of 0.167. A45G C48A gave a self-cleavage of 0.109. A44U C46U showed a self-cleavage of 0.193. In the case of A43U C66U, the self-cleavage is reported as 0.162. A43U C66A showed a self-cleavage of 0.0293. For A44G A64C, the self-cleavage was 0.12. For A44G A64U, the self-cleavage was 0.102. With A45G U52G the self-cleavage was 0.0854. Variant A45C G56A has a self-cleavage of 0.144. Work on A45C G56C yielded a self-cleavage of 0.312. With A45G G56C the self-cleavage was 0.0912. A47G U63A gave a self-cleavage of 0.211. A47G U63G gave a self-cleavage of 0.0332. Work on A43U U60C yielded a self-cleavage of 0.221. Variant A44U A49C has a self-cleavage of 0.0643. Work on C46A U52A yielded a self-cleavage of 0.196. With A47C U60C the self-cleavage was 0.418. For A45U G51C, the self-cleavage was 0.0528. Work on A43G A47C yielded a self-cleavage of 0.172. With A47C C50A the self-cleavage was 0.29. A44G U70G showed a self-cleavage of 0.135. In the case of A44G A45G, the self-cleavage is reported as 0.228. A44G A45U showed a self-cleavage of 0.0878. A45U G57A gave a self-cleavage of 0.17. A44G A59G showed a self-cleavage of 0.131. With A47C G68U the self-cleavage was 0.298. A45C U67G gave a self-cleavage of 0.0812. A43G U53G showed a self-cleavage of 0.226. With A45C U52C the self-cleavage was 0.176. In the case of A45C U52G, the self-cleavage is reported as 0.0239. With A44G U52C the self-cleavage was 0.223. C46U C48G gave a self-cleavage of 0.141. In the case of A43G U55G, the self-cleavage is reported as 0.128. Variant C46U G51A has a self-cleavage of 0.132. In the case of A44G C46G, the self-cleavage is reported as 0.0715. For A45U U67G, the self-cleavage was 0.131. Work on C46U A49G yielded a self-cleavage of 0.24. For C46U A49U, the self-cleavage was 0.239. With A44C A59C the self-cleavage was 0.15. Variant A44C A59G has a self-cleavage of 0.158. A44G C65G showed a self-cleavage of 0.192. In the case of A45G U60C, the self-cleavage is reported as 0.0993. Variant A45G U60G has a self-cleavage of 0.187. With C46A A61U the self-cleavage was 0.171. Work on A44C C66G yielded a self-cleavage of 0.0764. A44C C66A gave a self-cleavage of 0.215. Work on A44C C66U yielded a self-cleavage of 0.107. With A44C G56C the self-cleavage was 0.0706. Work on A47G U60G yielded a self-cleavage of 0.0656. In the case of A44C A71C, the self-cleavage is reported as 0.323. For A45C C65A, the self-cleavage was 0.2. A44U G56A showed a self-cleavage of 0.191. A44C U70G gave a self-cleavage of 0. C46U U60A showed a self-cleavage of 0.16. With C46U U60C the self-cleavage was 0.247. In the case of A45G G54C, the self-cleavage is reported as 0.0826. For A45C A61G, the self-cleavage was 0.105. In the case of A45U U63C, the self-cleavage is reported as 0.287. In the case of A43U G57U, the self-cleavage is reported as 0.152. In the case of A43U G57A, the self-cleavage is reported as 0.119.
